These results are taken from patent US20200325212.

For data set [1], the target named is CTLA4-Fc MMP9 (MMP9-cleavable CTLA4-Fc mask; CTLA4-Fc_WT).
Data set [2] addresses CTLA4-Fc Mxx9 (non-cleavable mask), P16410.
Data set [3] concerns the target T1, mLCN2-Fc (bivalent m-Lcn2 fused to human IgG1 Fc).
T1 chain: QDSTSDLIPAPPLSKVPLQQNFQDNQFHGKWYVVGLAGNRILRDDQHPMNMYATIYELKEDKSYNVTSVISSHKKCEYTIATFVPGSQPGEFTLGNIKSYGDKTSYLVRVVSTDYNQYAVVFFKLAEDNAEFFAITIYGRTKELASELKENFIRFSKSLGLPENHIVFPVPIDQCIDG

CTLA4-Fc MMP9 (MMP9-cleavable CTLA4-Fc mask; CTLA4-Fc_WT), sequence (chain, as listed by the source): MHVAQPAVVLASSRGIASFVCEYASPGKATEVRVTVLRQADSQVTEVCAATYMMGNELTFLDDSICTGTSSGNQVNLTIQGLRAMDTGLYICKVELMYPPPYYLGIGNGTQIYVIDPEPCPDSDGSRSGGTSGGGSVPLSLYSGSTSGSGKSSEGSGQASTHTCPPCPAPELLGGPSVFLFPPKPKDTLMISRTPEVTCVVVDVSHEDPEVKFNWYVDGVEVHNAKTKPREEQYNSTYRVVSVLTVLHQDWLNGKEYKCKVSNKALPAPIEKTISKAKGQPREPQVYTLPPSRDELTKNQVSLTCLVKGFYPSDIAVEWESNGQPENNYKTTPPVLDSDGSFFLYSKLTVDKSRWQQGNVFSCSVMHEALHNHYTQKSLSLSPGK
CTLA4-Fc Mxx9 (non-cleavable mask), P16410, sequence (P16410 whole entry, looked up, the tested form may be a part): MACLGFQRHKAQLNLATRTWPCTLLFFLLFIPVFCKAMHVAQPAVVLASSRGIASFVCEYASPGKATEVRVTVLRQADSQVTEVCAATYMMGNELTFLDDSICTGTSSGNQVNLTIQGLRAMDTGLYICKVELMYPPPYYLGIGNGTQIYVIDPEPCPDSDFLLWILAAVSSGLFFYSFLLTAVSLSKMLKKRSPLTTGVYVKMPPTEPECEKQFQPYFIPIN

B1: recombinant human MMP9 (ProSpecBio) (protein)
chain: APRQRQSTLVLFPGDLRTNLTDRQLAEEYLYRYGYTRVAEMRGESKSLGPALLLLQKQLSLPETGELDSATLKAMRTPRCGVPDLGRFQTFEGDLKWHHHNITYWIQNYSEDLPRAVIDDAFARAFALWSAVTPLTFTRVYSRDADIVIQFGVAEHGDGYPFDGKDGLLAHAFPPGPGIQGDAHFDDDELWSLGKGVVVPTRFGNADGAACHFPFIFEGRSYSACTTDGRSDGLPWCSTTANYDTDDRFGFCPSERLYTQDGNADGKPCQFPFIFQGQSYSACTTDGRSDGYRWCATTANYDRDKLFGFCPTRADSTVMGGNSAGELCVFPFTFLGKEYSTCTSEGRGDGRLWCATTSNFDSDKKWGFCPDQGYSLFLVAAHEFGHALGLDHSSVPEALMYPMYRFTEGPPLHKDDVNGIRHLYGPRPEPEPRPPTTTTPQPTAPPTVCPTGPPTVHPSERPTAGPTGPPSAGPTGPPTAGPSTATTVPLSPVDDACNVNIFDAIAEIGNQLYLFKDGKYWRFSEGRGSRPQGPFLIADKWPALPRKLDSVFEERLSKKLFFFSGRQVWVYTGASVLGPRRLDKLGLGADVAQVTGALRSGRGKMLLFSGRRLWRFDVKAQMVDPRSASEVDRMFPGVPLDTHDVFQYREKAYFCQDRFYWRVSSRSELNQVDQVGYVTYDILQCPED
Consider B1, for which the “cleavage, SDS-PAGE” value was “Recombinant MMP9 was demonstrated to effectively cleave the CTLA4-MMP9-Fc mask” in data set [1], “Addition of MMP9 had no effect on CTLA4-Fc Mxx9 bands” in data set [2] and “but not the m-Lcn2-Fc” in data set [3]. In addition, the “intensity of the full-length band, time course of cleavage at 37 °C, SDS-PAGE” value in data set [1] is reported as “At 2 h the intensity of the full-length band was ~50% of the 0 h timepoint”.
